Assay results reported in the DeepSol protein solubility set.

Test: soluble on expression in E. coli; label from the status in PepcDB or PDB records

**Q.** With “SLVTSLKGLWTLRAFGRQPYFETSGGGSGGGSGGGSGGGSGGGEYNLTTTEVVMENVTAFWEEGGTPVLKDINFKIERGQLLAVAGSTGAGKTSLLMMIMGELEPSEGKIKHSGRISFCSQFSWIMPGTIKENIIFGVSYDEYRYRSVIKACQLEEDISKFAEKDNIVLGEGGITLSGGQRARISLARAVYKDADLYLLDSPFGYLDVLTEKEIFESCVCKLMANKTRILVTSKMEHLKKADKILILHEGSSYFYGTFSELQNLQPDFSSKLMG” as the sequence, how does the “soluble on expression in E. coli” value read?
**A.** soluble

**Q.** Which “soluble on expression in E. coli” value does the source give for “MGSDKIHHHHHHMPRPRRTQISLEDTPFYHCCSRVVRRAFLCGDDSYSGKNYDHRRAWVESLLFELEAVFAIDVVAFAVMSNHLHVVLRIDVETANRWSDREVLEQWHKLFKGDELTQKFAKGGLVEADEVNRLRHSIAIYRSRLCDISWFMRCLNEPIARQANQEDNCTGRFWEGRFKSQALLDEAAVLACMTYVDLNPIRAQMADTLEQSAHTSIQLRIQAALKDEQPKNLLPFIGNERDNQPIGITFSLIDYLQLVDDTGRIIRNDKLGAITENSAKLLTRLNIHHDNWLKLTTEFGKLFHGPVGTLQELTDYCEHLEKRRRHFAKCCQHLNAG” here?
**A.** not soluble

**Q.** Which “soluble on expression in E. coli” value does the source give for “MAHHHHHHMSKAVQFSVLKQGSLEPGSWTQRVLTIDTKSDTVTISRKHHPEHVFYHSLEVAHVQMWPRYKASEISGHFNSLKAKMTLRIFGKQVPVPKMSVEAVTTADVAEMIRVPSVPSSISLDASLNIERPPVAAATLSQKQKERHPATATSANDDLCDSWMIRFTSIDSYELAVMLLRNMRNTEGKRKRLFGDHVLQDLERVQKAWAEETTGAKSIGGALRSGS” here?
**A.** soluble

**Q.** With “MTQKNESQRQDRVAAWSRHAESELSAYQSAAKLDLQAQKPRDHKLCASLEEAIRRSGLRDGMTVSFHHAFRGGDLTINLVMETIAKMGFKNLTLASSSLSDCHAPLVEHIRNGVVSRIYTSGLRGPLAEEISRGLLAEPVQIHSHGGRVHLVQSGELNIDVAFLGVPSCDEFGNANGYTGKACCGSLGYAMVDADSAKQVVMLTEQLLPYPHNPASIAQDQVDLIVQIEEVGDANKIGAGATRMTTNPRELLIARSAAEVIAHSGYFNEGFSLQTGTGGASLAVTRFLEDKMRSRNIVANFALGGITATMVDLHEKGLIRKLLDVQSFDRNAAQSLARNPNHIEISANQYANWGSKGASVDRLDVVVLSALEVDTHFNVNVLTGSDGVLRGASGGHCDTAVAAALSIIVAPLVRGRIPTLVDNVTTCVTPGSSVDILVTDHGIAVNPARPELAERLKAAGMKVVSIEWLRERAQLLTGQPRPIEFTDRVIAVVRYRDGSVIDVVHQVKE” as the sequence, how does the “soluble on expression in E. coli” value read?
**A.** not soluble

**Q.** Which “soluble on expression in E. coli” value does the source give for “MRNEEKRALRRELRGRRSQMGRDVRAAATVKINHLLKRYIKKGRKIGVYWPMGKELRLDGFVRAAQKRGAELYLPYIEPRSRRMWFTPYPADGVKQERKRGRAKLHVPQFAGRKKRVHDLNLLLVPVVGMDRLGYRLGQAGGYYDATLSAMKYRLQAKTVGVGFACQLVDRLPVEAHDRSLDGFVSEAGILCF” here?
**A.** not soluble

**Q.** For “MSLTELTGNPRHDQLLMLIAERGYMNIDELANLLDVSTQTVRRDIRKLSEQGLITRHHGGAGRASSVVNTAFEQREVSQTEKKKAIAEAVADYIPDGSTIFITIGTTVEHVARALLNHNHLRIITNSLRVAHILYHNPRFEVMVPGGTLRSHNSGIIGPSAASFVADFRADYLVTSVGAIESDGALMEFDVNEANVVKTMMAHARNILLVADHTKYHASAAVEIGNVAQVTALFTDELPPAALKSRLQDSQIEIILPQEDALEHHHHHH”, which “soluble on expression in E. coli” value is on record?
**A.** soluble

**Q.** With “MSSAENIKESGKAKKQKNGNKNNNKKPSAEAIPLKNSPRNKLKKRGSMEQLSEQISEVFTIEMNNDQATVEEPTDTTVRINPADPSSPKVSTSEPKVTVPEPPPTHYAPVVVFIDHLSWPIFLHFVIVNRNMIITKVGRSFLTSLMPGDQISGVDSTPIWCIEDLEHEIQSKPARSVNLTVNRVWNIKCLTNIQLERILPQTDERLQYFMVHVYCSNGTGGLKLYSDKKRVLVQHIRAKTPICHALLVGDQILAINDEFLIGKPKKSLRRHAYDSIKKSFKTKGFAEIIACRPIGARSSPAPSVDAELSGKFANYACGVEKGNKLERKVTDETNNLPLEADALEIALRELTFLQQWVKQDFEEAPCEKGKSLLILKPPFENAKPYEYPPFVVNHQTQLVSAKALSSPVTNTPVAHSPPQALPNKTIIVPVGSTSSVLVPSTTSNALPPVLSLNSQSLSVKTLSMAPQVSQVEPPTSVMNGPTEAADLHVAVPPSPNTPRKRSIFKYKQEKGQTPEHQTTISFVEQPETSKITSDISEDEELKKCDPRSGIVAFIKNKFN” as the sequence, how does the “soluble on expression in E. coli” value read?
**A.** not soluble

**Q.** For “LSLTQLSSGNPVYEKYYRQVEAGNTGRVLALDAAAFLKKSGLPDLILGKIWDLADTDGKGVLSKQEFFVALRLVACAQNGLEVSLSSLSLAVPPPRFHD”, which “soluble on expression in E. coli” value is on record?
**A.** soluble

**Q.** With “MSLDKGTVDGRLYQLFKTCIQGINSPLSSVALRSDFYILANHYLSRVLSDQVGSEKVLQDLRLGSKKLVEIIWNDVVYGEGTSRVTGILLLDSLIQLANRSKENFILDSLMKTTRLLLIIRSLKNTDALLNSTTEHINIDDLLYELTAFKATVFFLIRVAETRGGASALIENNLFRIIAELSFLKVDPDLGLDLMFDEVYVQNSKFLKVNVTLDNPLLVDKDANGVSLFELIVPIFQLISAVLVSMGSSNKAVVQTVKGLLNTYKRLVIGIFKRDLLREKEDKKNSSDPNNQSLNEMVKLIVMLCTLTGYQNNDEGHHHHHH” as the sequence, how does the “soluble on expression in E. coli” value read?
**A.** not soluble

**Q.** Which “soluble on expression in E. coli” value does the source give for “MGSDKIHHHHHHMSKSLIRIAPGALTIGKPLPWDVFDSEGNILLRQGYVIQTNSQLEQLFERGRFKPRKIERPKEETFEDLRQRNPFAEYGDLLTTLEVTLNAITSEDPTAQKRLLGLCRMLDKTCQEAPDASLALVHLYSISPTIHEQILFYGILCHFIARQFGLEEKRATVLTAAALTANLALVPVADQLNASNTVLTDDQRAVIRKHPARSIQALTSAGINNKLLLRIIAQHHEQADGSGYPEGLSGSDILPEAEILALAERYVAMITKRAYRNRMNITEARKLIATLADGKFRPAIPRSLLQVLGDHPPGMLVRLVNNEVGVVTRRADRTRGPFVKAIFGPRGNRYNGTFERDTSLLEYNVRAPEEPEIMPSMDFSMLWGFRS” here?
**A.** not soluble

**Q.** With “MSLSLESLEWMAFDSFLLWRSEESIDARILLVEINQNDNYSLTSTISNSSFIGVIEKLQVYQPKVIGLEVDQHLLINSQEDKLAKIFQKYKNLIANEKILPLQVHSYLDLPNEQITFADQILDNDGKSRRSLLAINTSNGYKLSLAMELARIYLAEKNISLENSRLGKTKLPRFLPNSGGYIRADASGFQVLINFRSGNQRFRTLSGEDIKNGKFNPEWIRDRIVIIGITNTHNQGFIPTSAITSVKSASTQVNKLEIQAHAISQIISAVLDGRPLINTWNDGEGHHHHHH” as the sequence, how does the “soluble on expression in E. coli” value read?
**A.** not soluble

**Q.** Which “soluble on expression in E. coli” value does the source give for “MLAKDSSLTRTGKGEIVDKDSSFTWYVGTIDEANAFIGLARVFSKDEKVRETLLEIQKMLFLVGAEPSLQKLSEKDLEWMLERVEEFERSVKKPHCFIILEKDESTAFLSVARAVVRRAERQAVRLYREGKARLLVVEWLNKLSYLLYLMILKEGGGDFEEI” here?
**A.** not soluble

**Q.** With “MAHHHHHHMLRHCIPRLGIAKTVIKDNYSLSTLTNGLRVLTCDDGNGVTGMGLFMLNGAKFESPDNAGAAAVFEALPLRDNQIYTSREISQALSGLGNAFKVTNNKEALSVILMLPRYHQRDGLELLNAMCLHPTRNEEEFRIAKEKTHERTLLYDRDATSVCFELVHEAGWNGKGLGHSLNPKKEELDKLTLEKFTAFHSACTRPERTVLAATGVADHKSFAEEVEKLLRFNNADVAVQAMPQLQPGYYPYTGGSRLVHRTEAPESVNKFQEKSLSHVALFFQGVPINHPDYYNISVIQTLLGGGTSFSSGGPGKGMQTKLFREVLNREGFLHGLECITAWYSDGGLFGLYGTAPHQAVVSLLNVMIYQAASICQRVSPTHLEMAKNQLRSQLILLGEGREQLLSDMGFNLVVHNHIITATETMEGTRNITLDDLKRVCADMIKKPLTFTVYGDTTKMPSHESLEETVRKTYEKLN” as the sequence, how does the “soluble on expression in E. coli” value read?
**A.** not soluble
